The experiment has as its target Canavalia villosa seed lectin (Cvill) (Canavalia villosa). Nature of the experiment: crystal structure; Cvill with alpha-methyl-D-mannopyranoside; 17.5% PEG1000, 0.1 M potassium phosphate citrate pH 4.2, 200 mM lithium sulfate, room temperature; space group I222, one monomer per asymmetric unit; tetramer formed by the crystal's 222 symmetry, dimers and tetramers predicted with PISA.

As to “Canavalia villosa seed lectin (Cvill) (natural protein)”, the stoichiometry N (in general, the number of molecules, sites or subunits per partner or assembly) was 4.

These data come from PMC10649158.
